The supplement of paper PMC12042874
± gives the uncertainty stated by the source.

assay: amyloid nucleation score (Sup35N fusion, yeast selection) (log enrichment); library NNK2; higher = more nucleation; inactive = no reads after selection
Outline: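 Three technical output replicates were used for random libraries. Psi-negative yeast expressing peptides of 20 random codons fused to Sup35N were induced with 100 μM copper sulfate for 24 hours and grown 7 days at 30°C on medium lacking adenine and uracil, and input and output plasmid inserts were Illumina-sequenced, excluding sequences with under 100 input reads. The nucleation score is the DiMSum log enrichment of output over input reads, centred on the mode score of non-aggregating sequences.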

Row | Substance | amyloid nucleation score
1 | IPNVPCIRGVSYSDFFTSSY | -0.044 ± 0.61
2 | IPWNQRRKW | 0.671 ± 0.16
3 | IPWVNRTPCSTCGGFRFTDP | 3.53 ± 0.08
4 | IPYLDYMTMH | 0.082 ± 0.22
5 | IQPPQFFAFI | inactive
6 | IQVASRRIIM | 0.063 ± 0.21
7 | IQWYNLYTENRMISKLRGSW | -0.547 ± 1.1
8 | IREGMWCSRGMHHTRLRDFS | 0.671 ± 0.64
9 | IRFVESSQMKVLPRGGVGLN | inactive
10 | IRKCRSHSFSRFRRHFS | 0.285 ± 1
11 | IRLPPRRAFHNEFFVDLHRG | -1.91 ± 0.76
12 | IRMNIFASSTR | 3.11 ± 0.073
13 | IRNLLCVSYGCTGYMMVGHG | 4.68 ± 0.063
14 | IRNVSYDMGCELSHDMVRSR | 0.044 ± 1.1
15 | IRPINGSWGVSTNCKVYDYV | -0.011 ± 1.1
16 | IRPLFTVLGRKTRQIFTM | -0.283 ± 1
17 | IRQFDIDITNARNKG | -1.62 ± 0.62
18 | IRRTPHLISFLRKLCEYWIE | inactive
19 | IRVICRIWCLFLSL | 0.087 ± 0.55
20 | IRWGNRLTLERGFFKPFY | inactive
21 | IRWNDSYKKECHIFFWRNRE | inactive
22 | IRWNTTFGFDSEAPTCCATS | 0.026 ± 0.8

Row | Substance | amyloid nucleation score
23 | IRYFR | 0.371 ± 0.13
24 | ISDLFYANLLVIASNMVT | -1.46 ± 0.78
25 | ISETLASSVWRRCVSCGYVM | 3.93 ± 0.075
26 | ISFYFSAWDKTVQTRRYIDH | -0.356 ± 0.33
27 | ISFYYWLARPCLFVSKIEGA | 3.54 ± 0.062
28 | ISGVVFSTTRLLQFDGCRVG | 1.31 ± 0.52
29 | ISIYIITVILFLVDALYMLR | -0.809 ± 1.1
30 | ISMTL | 6.15 ± 0.081
31 | ISNLQGFLLQNSDLAHSWVA | 1.28 ± 0.15
32 | ISRIIVPDSRLAYGEWFEIV | 1.53 ± 0.58
33 | ISSSSKVD | -0.706 ± 0.29
34 | ISVDTRFGLNVCFEGCCAYR | 7.449 ± 0.062
35 | ISVPYGVKGSSACMNGLGVT | 0.318 ± 0.8
36 | ISWIFLKSAFTELAVFWDFI | 0.726 ± 0.46
37 | ISYVCGPFICVLNLFYQI | 6.04 ± 0.066
38 | ITCLWRAWNAVLRRGHYKTS | 0.615 ± 0.51
39 | ITFRTYILPDSWIRPRTFEK | 3.29 ± 0.054
40 | ITISLLLGHYDCCCVTLLQE | 7.263 ± 0.027
41 | ITLSSS | 0.853 ± 0.2
42 | ITSICGIIE | inactive
43 | IVCITTSNVLTCDIDGNITK | 4.27 ± 0.044
44 | IVFVLLSYYLL | 3.4 ± 0.037

Row | Substance | amyloid nucleation score
45 | IVGHM | -0.5 ± 0.21
46 | IVGVSFKSVNTNRIDPVFLF | inactive
47 | IVHYGETNG | 0.494 ± 0.38
48 | IVMCTRRDIA | -0.577 ± 0.56
49 | IVRVSEPIEVHVHVNAVYSV | 4.68 ± 0.083
50 | IVVQWMYVF | -0.382 ± 0.33
51 | IVYLWRNRWVDLADYLLHVM | 0.313 ± 0.29
52 | IVYYG | 0.801 ± 0.38
53 | IWGPVLYIMSGYSSVVTRF | 6.561 ± 0.055
54 | IWHFYIACLGVSNESISGFG | 6.77 ± 0.068
55 | IWLLHQCSLATLGFC | -1.25 ± 0.62
56 | IWPSRSGCVSVASVRI | 0.98 ± 0.33
57 | IWSYSSFGVD | -0.064 ± 1.1
58 | IYCHPLRYVLFIVSYRVSSA | 0.259 ± 0.56
59 | IYEQPG | 0.012 ± 0.54
60 | IYFFSVF | inactive
61 | IYGLYG | 0.515 ± 0.51
62 | IYGQCWVFQNLLRLRVSV | 0.119 ± 0.76
63 | IYIAKW | -0.656 ± 0.33
64 | IYLHFGNLLNYFETRRTVFR | 6.19 ± 0.087
65 | IYQVRLYD | -0.923 ± 0.5
66 | IYTWSIRIYRF | -0.778 ± 0.48

Row | Substance | amyloid nucleation score
67 | IYVVMFSKRLNSNFW | -1.62 ± 0.62
68 | IYYGGLKHARVPVTRFEGSP | 3.87 ± 0.098
69 | KAKIATKVSLFLLSGYVDLQ | -0.356 ± 0.65
70 | KALCLYNVVRKKRCT | 0.152 ± 0.5
71 | KALFLCILMLSASAFQEECH | 4.47 ± 0.085
72 | KAVVMLI | -1.09 ± 0.31
73 | KAWTLVRHDVLLYV | -0.316 ± 0.44
74 | KCCVENCRWHGRLSSLLFAM | 0.576 ± 0.34
75 | KCGEKRMKCFSDCRRWWLCQ | 4.88 ± 0.068
76 | KCGSSVVYFIVYQRKLKWGW | 0.961 ± 0.81
77 | KCLSRTQTYACSP | 1.78 ± 0.21
78 | KCVSRISSGR | 1.03 ± 0.66
79 | KCVVRAVA | 2.23 ± 0.24
80 | KCYLVLRG | 3.08 ± 0.17
81 | KDRRRVDMLRLGR | 1.36 ± 0.26
82 | KEFYGKRIFRCLYDVLVVLF | -1.25 ± 0.54
83 | KEMAFVRGMTARPRYNVNSE | 1.22 ± 0.29
84 | KFCCT | 3.47 ± 0.1
85 | KFFMDYNGILDFWFRTREKD | -0.375 ± 0.74
86 | KFGLPREYNSSVPVGPASCL | 0.272 ± 0.41
87 | KFMVLITVRMIVIRPVSVRS | 0.647 ± 0.58
88 | KFNGPKIVYFISTSMVLLVS | -0.406 ± 1.1
